Measurements: patent publication US20030012792

Biological target: alpha-1 antichymotrypsin (ACT, Sigma Chemical Co.) (UniProt P01011)
Sequence (P01011 24-423): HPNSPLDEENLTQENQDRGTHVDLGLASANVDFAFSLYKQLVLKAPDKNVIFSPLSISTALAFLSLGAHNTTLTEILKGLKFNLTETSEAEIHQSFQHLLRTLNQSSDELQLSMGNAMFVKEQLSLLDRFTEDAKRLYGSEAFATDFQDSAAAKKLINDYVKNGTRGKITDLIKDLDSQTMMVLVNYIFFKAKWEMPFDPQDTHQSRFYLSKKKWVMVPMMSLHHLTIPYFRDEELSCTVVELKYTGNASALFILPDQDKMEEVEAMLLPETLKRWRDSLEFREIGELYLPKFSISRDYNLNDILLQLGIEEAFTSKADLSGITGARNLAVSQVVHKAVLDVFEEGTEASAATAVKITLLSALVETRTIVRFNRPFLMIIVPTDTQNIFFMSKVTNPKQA

In the case of “Human Prostate-Specific Antigen (purified human PSA, Vitro Diagnostics)”, the “proteolytic (serine protease) activity of PSA on synthetic substrate S-2586, absorbance at 405 nm” value is reported as “preincubation of PSA with ACT blocked both serine protease activity of purified PSA (FIG. 11)”.
